How the values were obtained:
Lenti-X 293T cells = assay: YFP fluorescence quenching anion reporter plate reader assay of engineered receptors stimulated with acetylcholine or a non-native ligand; type: cell-based
Outline: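 YFP quench was followed for about 1 min 43 s after ligand delivered in iodide-based ECS, pH 7.2. Values are end-of-read fluorescence (last 10 s) divided by the pre-ligand baseline (15 s). Cells were LX293T, transfected with receptor DNA a day before the assay.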

[1] = Sensitivity of parental chimera SEQ ID NO: 33 to ligands relative to wild type α7-nAChR

B1: CODA71: parental chimeric LGIC: human α7-nAChR ligand binding domain with GlyRα1 Cys-loop fused to human GlyRα1 ion pore domain (protein)
chain: MRCSPGGVWLALAASLLHVSLQGEFQRKLYKELVKNYNPLERPVANDSQPLTVYFSLSLLQIMDVDEKNQVLTTNIWLQMSWTDHYLQWNVSEYPGVKTVRFPDGQIWKPDILLYNSADERFDATFHTNVLVNSSGHCQYLPPGIFKSSCPMDLKNFPMDVQTCKLKFGSWSYGGWSLDLQMQEADISGYIPNGEWDLVGIPGKRSERFYECCKEPYPDVTFTVTMRRRMGYYLIQMYIPSLLIVILSWISFWINMDAAPARVGLGITTVLTMTTQSSGSRASLPKVSYVKAIDIWMAVCLLFVFSALLEYAAVNFVSRQHKELLRFRRKRRHHKSPMLNLFQEDEAGEGRFNFSAYGMGPACLQAKDGISVKGANNSNTTNPPPAPSKSPEEMRKLFIQRAKKIDKISRIGFPMAFLIFNMFYWIIYKIVRREDVHNQ
modifications: synthetic sequence of chimeric LGIC
YFP fluorescence quenching using CNL001 (Lenti-X 293T cells; 1 nM CNL001, first column): 3.727%
YFP fluorescence quenching using CNL001 (Lenti-X 293T cells; 1 nM CNL001, second column): 20.231%
YFP fluorescence quenching using TC-5619/Bradanicline (Lenti-X 293T cells; 1 nM brd): 9.41%
YFP fluorescence quenching using TC-5619/Bradanicline (Lenti-X 293T cells; 3 nM brd): 44.38%
YFP fluorescence quenching using Varenicline (Lenti-X 293T cells; 3 nM var, first column): −2.36
YFP fluorescence quenching using Varenicline (Lenti-X 293T cells; 3 nM var, second column): −3.522
YFP fluorescence quenching using CNL001 (Lenti-X 293T cells; 10 nM CNL001, first column): 81.096%
YFP fluorescence quenching using CNL001 (Lenti-X 293T cells; 10 nM CNL001, second column): 82.368%
YFP fluorescence quenching using TC-5619/Bradanicline (Lenti-X 293T cells; 10 nM brd): 76.61%
YFP fluorescence quenching using TC-5619/Bradanicline (Lenti-X 293T cells; 30 nM brd): 70.23%
YFP fluorescence quenching using Facinicline (Lenti-X 293T cells; 30 nM fac): 53.42
YFP fluorescence quenching using Varenicline (Lenti-X 293T cells; 30 nM var, first column): −4.255
YFP fluorescence quenching using Varenicline (Lenti-X 293T cells; 30 nM var, second column): −3.636
YFP fluorescence quenching using CNL001 (Lenti-X 293T cells; 50 nM CNL001, first column): 83.62%
YFP fluorescence quenching using CNL001 (Lenti-X 293T cells; 50 nM CNL001, second column): 84.482%
YFP fluorescence quenching using ABT-126 (Lenti-X 293T cells; 50 nM abt): −1.98%
YFP fluorescence quenching using CNL001 (Lenti-X 293T cells; 100 nM CNL001, first column): 84.297%
YFP fluorescence quenching using CNL001 (Lenti-X 293T cells; 100 nM CNL001, second column): 85.368%
YFP fluorescence quenching using CNL002 (Lenti-X 293T cells; 100 nM CNL002): 49.61%
YFP fluorescence quenching using ABT-126 (Lenti-X 293T cells; 100 nM abt): 24.27%
YFP fluorescence quenching using AZD-0328 (Lenti-X 293T cells; 100 nM azd0328): 73.59%
YFP fluorescence quenching using TC-5619/Bradanicline (Lenti-X 293T cells; 100 nM brd): 78.62%
YFP fluorescence quenching using Facinicline (Lenti-X 293T cells; 100 nM fac): 83.6
YFP fluorescence quenching using ABT-126 (Lenti-X 293T cells; 300 nM abt): 56.8%
YFP fluorescence quenching using AZD-0328 (Lenti-X 293T cells; 300 nM azd0328): 78.09%
YFP fluorescence quenching using TC-5619/Bradanicline (Lenti-X 293T cells; 300 nM brd): 75.51%
YFP fluorescence quenching using Facinicline (Lenti-X 293T cells; 300 nM fac): 77.44
YFP fluorescence quenching using Varenicline (Lenti-X 293T cells; 300 nM var, first column): 46.195
YFP fluorescence quenching using Varenicline (Lenti-X 293T cells; 300 nM var, second column): 45.522
YFP fluorescence quenching using ABT-126 (Lenti-X 293T cells; 500 nM abt): 76.28%
YFP fluorescence quenching using Varenicline (Lenti-X 293T cells; 500 nM var, first column): 69.253
YFP fluorescence quenching using Varenicline (Lenti-X 293T cells; 500 nM var, second column): 71.705
YFP fluorescence quenching using CNL001 (Lenti-X 293T cells; 1 uM CNL001, first column): 85.647%
YFP fluorescence quenching using CNL001 (Lenti-X 293T cells; 1 uM CNL001, second column): 86.358%
YFP fluorescence quenching using CNL002 (Lenti-X 293T cells; 1 uM CNL002): 74.15%
YFP fluorescence quenching using ABT-126 (Lenti-X 293T cells; 1 uM abt): 73.16%
YFP fluorescence quenching using TC-6987 (Lenti-X 293T cells; 1 uM tc6987): 31.56
YFP fluorescence quenching using Varenicline (Lenti-X 293T cells; 1 uM var, first column): 79.254
YFP fluorescence quenching using Varenicline (Lenti-X 293T cells; 1 uM var, second column): 79.244
YFP fluorescence quenching using ABT-126 (Lenti-X 293T cells; 3 uM abt): 70.98%
YFP fluorescence quenching using TC-6987 (Lenti-X 293T cells; 3 uM tc6987): 31.82
YFP fluorescence quenching using TC-6987 (Lenti-X 293T cells; 5 uM tc6987): 30.75
YFP fluorescence quenching using ABT-126 (Lenti-X 293T cells; 10 uM abt): 72.62%
YFP fluorescence quenching using TC-6987 (Lenti-X 293T cells; 10 uM tc6987): 56.68
YFP fluorescence quenching using CNL002 (Lenti-X 293T cells; 30 uM CNL002): 75.21%
YFP fluorescence quenching using ABT-126 (Lenti-X 293T cells; 30 uM abt): 77.49%
YFP fluorescence quenching using AZD-0328 (Lenti-X 293T cells; 30 uM azd0328): 79.05%
YFP fluorescence quenching using Facinicline (Lenti-X 293T cells; 30 uM fac): 79.62
YFP fluorescence quenching using TC-6987 (Lenti-X 293T cells; 30 uM tc6987): 51.46
YFP fluorescence quenching using ABT-126 (Lenti-X 293T cells; 50 uM abt): 77.96%
YFP fluorescence quenching using TC-6987 (Lenti-X 293T cells; 50 uM tc6987): 61.26
YFP fluorescence quenching using ABT-126 (Lenti-X 293T cells; 100 uM abt): 77.81%
YFP fluorescence quenching using TC-6987 (Lenti-X 293T cells; 100 uM tc6987): 43.21
YFP fluorescence quenching using TC-6987 (Lenti-X 293T cells; 300 uM tc6987): 7.79
YFP fluorescence quenching using TC-6987 (Lenti-X 293T cells; 500 uM tc6987): 51.58
percent quench of YFP fluorescence, 30 nM TC-6683 (Lenti-X 293T cells; TC-6683 30 nM): −14.43%
percent quench of YFP fluorescence, 300 nM TC-6683 (Lenti-X 293T cells; TC-6683 300 nM): −13.08%
percent quench of YFP fluorescence, 3 uM TC-6683 (Lenti-X 293T cells; TC-6683 3 uM): −13.71%
percent quench of YFP fluorescence, 30 uM TC-6683 (Lenti-X 293T cells; TC-6683 30 uM): −14.02%
percent quench of YFP fluorescence, 100 uM TC-6683 (Lenti-X 293T cells; TC-6683 100 uM): −8.77%
percent quench of YFP fluorescence, 10 uM ach (Lenti-X 293T cells; acetylcholine 10 uM): 15.61%
percent quench of YFP fluorescence, 30 uM ach (Lenti-X 293T cells; acetylcholine 30 uM): 63.31%
percent quench of YFP fluorescence, 50 uM ach (Lenti-X 293T cells; acetylcholine 50 uM): 73.16%
percent quench of YFP fluorescence, 100 uM ach (Lenti-X 293T cells; acetylcholine 100 uM): 74.94%
percent quench of YFP fluorescence, 300 uM ach (Lenti-X 293T cells; acetylcholine 300 uM): 65.94%
percent quench of YFP fluorescence, 500 uM ach (Lenti-X 293T cells; acetylcholine 500 uM): 62.78%
percent quench of YFP fluorescence, 1 mM ach (Lenti-X 293T cells; acetylcholine 1 mM): 74.24%
percent quench of YFP fluorescence, 3 mM ach (Lenti-X 293T cells; acetylcholine 3 mM): 76.27%
percent quench of YFP fluorescence, 5 mM ach (Lenti-X 293T cells; acetylcholine 5 mM): 77.15%
percent quench of YFP fluorescence, 10 mM ach (Lenti-X 293T cells; acetylcholine 10 mM): 77.96%
sensitivity to ABT-126 compared with wild type α7-nAChR ([1]; ligand ABT-126): approximately as sensitive
fold more sensitive to AZD-0328 than wild type ([1]; ligand AZD-0328): approximately 3 fold
fold more sensitive to Facinicline/RG3487 than wild type ([1]; ligand Facinicline/RG3487): ~10 fold
sensitivity to TC-6987 compared with wild type α7-nAChR ([1]; ligand TC-6987): approximately as sensitive
type of agonist activity of TC-6987 on the receptor ([1]; ligand TC-6987, similar to wild type): partial agonist activity
sensitivity to acetylcholine compared with wild type α7-nAChR ([1]; ligand acetylcholine): approximately as sensitive
fold less sensitive to nicotine than wild type ([1]; ligand nicotine): ~2 fold
